Measurements reported in article PMC9482650, “Quantitative fragmentomics allow affinity mapping of interactomes” (Nature Communications, 2022).

What was measured:
Experiment in all cases: holdup assay
Design in all cases: key: below the threshold = too weak to quantify, mostly under pKd 3.1 to 4
GRIP1_4, Q9Y3R0 = molecular target: T1, GRIP1_4, Q9Y3R0
T1 sequence (Q9Y3R0 467-571, limits assumed, looked up): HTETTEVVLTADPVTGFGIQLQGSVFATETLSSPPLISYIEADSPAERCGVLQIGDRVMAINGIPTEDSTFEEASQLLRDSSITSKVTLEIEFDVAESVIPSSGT

SIPA1L2, Q9P2F8 = molecular target: T2, SIPA1L2, Q9P2F8
T2 sequence (Q9P2F8 945-1036, limits assumed, looked up): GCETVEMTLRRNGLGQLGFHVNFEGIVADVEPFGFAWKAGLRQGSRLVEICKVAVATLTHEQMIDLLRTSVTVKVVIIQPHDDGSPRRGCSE

GRIP1_5, Q9Y3R0 = molecular target: T3, GRIP1_5, Q9Y3R0
T3 sequence (Q9Y3R0 568-668, limits assumed, looked up): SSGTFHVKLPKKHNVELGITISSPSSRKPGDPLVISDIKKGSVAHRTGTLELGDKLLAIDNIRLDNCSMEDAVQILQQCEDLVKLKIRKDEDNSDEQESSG

NHERF4_2, Q86UT5 = molecular target: NHERF4_2, Q86UT5
Chain of NHERF4_2, Q86UT5 (Q86UT5 220-308): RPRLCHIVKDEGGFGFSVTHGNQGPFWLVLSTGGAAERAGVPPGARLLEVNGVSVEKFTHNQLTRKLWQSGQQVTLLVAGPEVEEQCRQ

FRMPD3, Q5JV73 = molecular target: FRMPD3, Q5JV73
Chain of FRMPD3, Q5JV73 (Q5JV73 12-100): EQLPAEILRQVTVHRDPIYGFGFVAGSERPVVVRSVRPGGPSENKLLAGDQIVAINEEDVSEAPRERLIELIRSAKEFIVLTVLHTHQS

DFNB31_3, Q9P202 = molecular target: T4, DFNB31_3, Q9P202
T4 sequence (Q9P202 811-907, limits assumed, looked up): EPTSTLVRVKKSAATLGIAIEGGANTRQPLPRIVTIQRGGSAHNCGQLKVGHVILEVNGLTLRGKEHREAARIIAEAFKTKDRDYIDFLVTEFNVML

FRMPD1, Q5SYB0 = molecular target: T5, FRMPD1, Q5SYB0
T5 sequence (Q5SYB0 52-145, limits assumed, looked up): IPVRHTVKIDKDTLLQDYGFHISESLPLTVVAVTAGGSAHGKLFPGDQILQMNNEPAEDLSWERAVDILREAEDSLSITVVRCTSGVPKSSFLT

DLG2_3, Q15700 = molecular target: DLG2_3, Q15700
PDZRN4_1, Q6ZMN7 = molecular target: PDZRN4_1, Q6ZMN7
Chain of PDZRN4_1, Q6ZMN7 (Q6ZMN7 213-318): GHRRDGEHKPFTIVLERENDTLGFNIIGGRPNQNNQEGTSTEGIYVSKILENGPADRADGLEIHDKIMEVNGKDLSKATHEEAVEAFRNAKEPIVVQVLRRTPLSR

SHANK1, Q9Y566 = molecular target: T6, SHANK1, Q9Y566
T6 sequence (Q9Y566 658-767, limits assumed, looked up): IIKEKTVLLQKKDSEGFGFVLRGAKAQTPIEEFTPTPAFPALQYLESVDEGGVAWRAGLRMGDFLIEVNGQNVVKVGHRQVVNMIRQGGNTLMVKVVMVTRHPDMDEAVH

MPDZ_5, O75970 = molecular target: T7, MPDZ_5, O75970
T7 sequence (O75970 695-796, limits assumed, looked up): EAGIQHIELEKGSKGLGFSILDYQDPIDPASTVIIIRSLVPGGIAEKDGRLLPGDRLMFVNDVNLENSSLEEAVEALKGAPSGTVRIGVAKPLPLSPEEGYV

MAGI2_3, Q86UL8 = molecular target: MAGI2_3, Q86UL8
Chain of MAGI2_3, Q86UL8 (Q86UL8 600-682): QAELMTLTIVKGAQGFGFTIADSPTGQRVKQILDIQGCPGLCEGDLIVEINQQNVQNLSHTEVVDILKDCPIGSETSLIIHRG

FRMPD4, Q14CM0 = molecular target: FRMPD4, Q14CM0
Chain of FRMPD4, Q14CM0 (Q14CM0 67-160): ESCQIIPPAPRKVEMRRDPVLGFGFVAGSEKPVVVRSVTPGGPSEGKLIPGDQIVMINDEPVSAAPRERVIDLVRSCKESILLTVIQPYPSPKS

PTPN3, P26045 = molecular target: PTPN3, P26045
Chain of PTPN3, P26045 (P26045 505-587): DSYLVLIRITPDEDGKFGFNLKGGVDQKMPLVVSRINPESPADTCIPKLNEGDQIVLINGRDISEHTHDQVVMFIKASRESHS

LNX1_3, Q8TBB1 = molecular target: LNX1_3, Q8TBB1
Chain of LNX1_3, Q8TBB1 (Q8TBB1 500-596): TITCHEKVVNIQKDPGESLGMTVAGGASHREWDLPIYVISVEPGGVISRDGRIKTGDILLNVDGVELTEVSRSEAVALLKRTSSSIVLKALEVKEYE

PDZD7_3, Q9H5P4 = molecular target: T8, PDZD7_3, Q9H5P4
T8 sequence (Q9H5P4 857-944, limits assumed, looked up): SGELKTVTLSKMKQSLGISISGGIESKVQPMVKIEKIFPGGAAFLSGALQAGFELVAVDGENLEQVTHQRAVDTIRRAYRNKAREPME

APBA1_2, Q02410 = molecular target: T9, APBA1_2, Q02410
T9 sequence (Q02410 742-832, limits assumed, looked up): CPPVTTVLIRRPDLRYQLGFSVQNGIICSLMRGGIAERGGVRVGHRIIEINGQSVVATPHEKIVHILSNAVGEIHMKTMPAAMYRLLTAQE

PARD3B_1, Q8TEW8 = molecular target: T10, PARD3B_1, Q8TEW8
T10 sequence (Q8TEW8 196-299, limits assumed, looked up): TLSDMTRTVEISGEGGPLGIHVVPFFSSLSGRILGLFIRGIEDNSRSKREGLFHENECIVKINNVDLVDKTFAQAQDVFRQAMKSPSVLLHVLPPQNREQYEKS

FRMPD2_1, Q68DX3 = molecular target: FRMPD2_1, Q68DX3
Chain of FRMPD2_1, Q68DX3 (Q68DX3 770-861): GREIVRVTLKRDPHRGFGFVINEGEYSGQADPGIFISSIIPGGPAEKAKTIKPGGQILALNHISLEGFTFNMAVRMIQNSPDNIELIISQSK

Inadl_10, Q8NI35 = molecular target: Inadl_10, Q8NI35
Chain of Inadl_10, Q8NI35 (Q8NI35 1673-1763): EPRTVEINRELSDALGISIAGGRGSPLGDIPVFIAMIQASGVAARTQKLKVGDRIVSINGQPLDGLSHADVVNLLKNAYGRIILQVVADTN

NOS1, P29475 = molecular target: NOS1, P29475
Chain of NOS1, P29475 (P29475 9-101): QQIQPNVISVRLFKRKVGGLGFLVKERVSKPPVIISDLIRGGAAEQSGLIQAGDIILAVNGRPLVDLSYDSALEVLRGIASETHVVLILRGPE

Inadl_1, Q8NI35 = molecular target: Inadl_1, Q8NI35
Chain of Inadl_1, Q8NI35 (Q8NI35 113-229): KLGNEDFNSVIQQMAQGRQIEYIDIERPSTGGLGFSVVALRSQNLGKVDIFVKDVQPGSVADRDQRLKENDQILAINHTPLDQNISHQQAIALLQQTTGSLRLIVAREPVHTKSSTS

MAGI3_2, Q5TCQ9 = molecular target: MAGI3_2, Q5TCQ9
Chain of MAGI3_2, Q5TCQ9 (Q5TCQ9 398-503): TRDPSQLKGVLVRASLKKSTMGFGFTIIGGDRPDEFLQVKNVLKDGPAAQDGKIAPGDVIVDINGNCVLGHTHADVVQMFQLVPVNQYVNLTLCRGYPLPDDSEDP

Inadl_6, Q8NI35 = molecular target: Inadl_6, Q8NI35
Chain of Inadl_6, Q8NI35 (Q8NI35 1058-1167): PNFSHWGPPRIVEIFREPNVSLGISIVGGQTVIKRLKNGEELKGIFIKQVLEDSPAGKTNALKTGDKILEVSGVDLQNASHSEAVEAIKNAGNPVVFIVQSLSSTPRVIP

Inadl_4, Q8NI35 = molecular target: Inadl_4, Q8NI35
Chain of Inadl_4, Q8NI35 (Q8NI35 547-651): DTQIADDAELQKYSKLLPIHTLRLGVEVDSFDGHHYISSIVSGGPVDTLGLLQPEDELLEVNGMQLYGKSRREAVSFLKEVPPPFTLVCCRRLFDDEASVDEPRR

PDLIM1, O00151 = molecular target: PDLIM1, O00151
Chain of PDLIM1, O00151 (O00151 1-87): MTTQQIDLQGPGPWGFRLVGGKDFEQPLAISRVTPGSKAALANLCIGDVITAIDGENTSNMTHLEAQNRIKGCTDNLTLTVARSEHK

LNX2_2, Q8N448 = molecular target: T11, LNX2_2, Q8N448
T11 sequence (Q8N448 334-432, limits assumed, looked up): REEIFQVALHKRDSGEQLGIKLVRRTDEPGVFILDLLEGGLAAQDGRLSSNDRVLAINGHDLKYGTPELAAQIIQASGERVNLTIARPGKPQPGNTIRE

[1] = plain residues with an end cap or a label only (N-terminal biotin on a linker: ttds)
[2] = plain residues with an end cap or a label only (N-terminal biotin on a linker: ado-ado)

## LCALPKVTTV [AGMAT, Q9BSE5]
GRIP1_4, Q9Y3R0; [1]
  pKd: below the threshold
SIPA1L2, Q9P2F8; [1]
  pKd: below the threshold
GRIP1_5, Q9Y3R0; [1]
  pKd: below the threshold
NHERF4_2, Q86UT5; [1]
  pKd: below the threshold
FRMPD3, Q5JV73; [1]
  pKd: below the threshold
DFNB31_3, Q9P202; [1]
  pKd: 3.69
FRMPD1, Q5SYB0; [1]
  pKd: below the threshold
DLG2_3, Q15700; [1]
  pKd: 4.64
PDZRN4_1, Q6ZMN7; [1]
  pKd: 3.75
SHANK1, Q9Y566; [1]
  pKd: below the threshold
MPDZ_5, O75970; [1]
  pKd: below the threshold
MAGI2_3, Q86UL8; [1]
  pKd: 4.4
FRMPD4, Q14CM0; [1]
  pKd: below the threshold
PTPN3, P26045; [1]
  pKd: 4.4
LNX1_3, Q8TBB1; [1]
  pKd: 3.61
PDZD7_3, Q9H5P4; [1]
  pKd: 5.41
APBA1_2, Q02410; [1]
  pKd: 3.86
PARD3B_1, Q8TEW8; [1]
  pKd: below the threshold
FRMPD2_1, Q68DX3; [1]
  pKd: below the threshold
Inadl_10, Q8NI35; [1]
  pKd: below the threshold
NOS1, P29475; [1]
  pKd: 3.7
Inadl_1, Q8NI35; [1]
  pKd: 3.57
MAGI3_2, Q5TCQ9; [1]
  pKd: 4.82
Inadl_6, Q8NI35; [1]
  pKd: 3.88
Inadl_4, Q8NI35; [1]
  pKd: below the threshold
PDLIM1, O00151; [1]
  pKd: below the threshold
LNX2_2, Q8N448; [1]
  pKd: 5.21

## TETASVCTKV [SLC23A1, Q9UHI7]
GRIP1_4, Q9Y3R0; [2]
  pKd: below the threshold
SIPA1L2, Q9P2F8; [2]
  pKd: below the threshold
GRIP1_5, Q9Y3R0; [2]
  pKd: below the threshold
NHERF4_2, Q86UT5; [2]
  pKd: below the threshold
FRMPD3, Q5JV73; [2]
  pKd: below the threshold
DFNB31_3, Q9P202; [2]
  pKd: below the threshold
FRMPD1, Q5SYB0; [2]
  pKd: below the threshold
DLG2_3, Q15700; [2]
  pKd: below the threshold
PDZRN4_1, Q6ZMN7; [2]
  pKd: below the threshold
SHANK1, Q9Y566; [2]
  pKd: 4.42
MPDZ_5, O75970; [2]
  pKd: below the threshold
MAGI2_3, Q86UL8; [2]
  pKd: 4.16
FRMPD4, Q14CM0; [2]
  pKd: below the threshold
PTPN3, P26045; [2]
  pKd: 3.97
LNX1_3, Q8TBB1; [2]
  pKd: 3.5
PDZD7_3, Q9H5P4; [2]
  pKd: 4.63
APBA1_2, Q02410; [2]
  pKd: 4.64
PARD3B_1, Q8TEW8; [2]
  pKd: 3.61
FRMPD2_1, Q68DX3; [2]
  pKd: 3.76
Inadl_10, Q8NI35; [2]
  pKd: 3.78
NOS1, P29475; [2]
  pKd: 3.62
Inadl_1, Q8NI35; [2]
  pKd: below the threshold
MAGI3_2, Q5TCQ9; [2]
  pKd: 4.18
Inadl_6, Q8NI35; [2]
  pKd: below the threshold
Inadl_4, Q8NI35; [2]
  pKd: below the threshold
PDLIM1, O00151; [2]
  pKd: below the threshold
LNX2_2, Q8N448; [2]
  pKd: 3.91

## RTRQRNETQV [HPV51-E6, P26554]
GRIP1_4, Q9Y3R0; [1]
  pKd: below the threshold
SIPA1L2, Q9P2F8; [1]
  pKd: below the threshold
GRIP1_5, Q9Y3R0; [1]
  pKd: below the threshold
NHERF4_2, Q86UT5; [1]
  pKd: below the threshold
FRMPD3, Q5JV73; [1]
  pKd: below the threshold
DFNB31_3, Q9P202; [1]
  pKd: below the threshold
FRMPD1, Q5SYB0; [1]
  pKd: below the threshold
DLG2_3, Q15700; [1]
  pKd: 4.75
PDZRN4_1, Q6ZMN7; [1]
  pKd: 4.16
SHANK1, Q9Y566; [1]
  pKd: below the threshold
MPDZ_5, O75970; [1]
  pKd: below the threshold
MAGI2_3, Q86UL8; [1]
  pKd: 4.02
FRMPD4, Q14CM0; [1]
  pKd: below the threshold
PTPN3, P26045; [1]
  pKd: 4.38
LNX1_3, Q8TBB1; [1]
  pKd: below the threshold
PDZD7_3, Q9H5P4; [1]
  pKd: 3.88
APBA1_2, Q02410; [1]
  pKd: 3.56
PARD3B_1, Q8TEW8; [1]
  pKd: below the threshold
FRMPD2_1, Q68DX3; [1]
  pKd: below the threshold
Inadl_10, Q8NI35; [1]
  pKd: below the threshold
NOS1, P29475; [1]
  pKd: 3.91
Inadl_1, Q8NI35; [1]
  pKd: below the threshold
MAGI3_2, Q5TCQ9; [1]
  pKd: 5.83
Inadl_6, Q8NI35; [1]
  pKd: below the threshold
Inadl_4, Q8NI35; [1]
  pKd: below the threshold
PDLIM1, O00151; [1]
  pKd: below the threshold
LNX2_2, Q8N448; [1]
  pKd: 3.61

## FVHPILQSAV [PRKCA, P17252]
GRIP1_4, Q9Y3R0; [2]
  pKd: below the threshold
SIPA1L2, Q9P2F8; [2]
  pKd: below the threshold
GRIP1_5, Q9Y3R0; [2]
  pKd: below the threshold
NHERF4_2, Q86UT5; [2]
  pKd: below the threshold
FRMPD3, Q5JV73; [2]
  pKd: below the threshold
DFNB31_3, Q9P202; [2]
  pKd: 3.57
FRMPD1, Q5SYB0; [2]
  pKd: below the threshold
DLG2_3, Q15700; [2]
  pKd: 3.74
PDZRN4_1, Q6ZMN7; [2]
  pKd: 3.92
SHANK1, Q9Y566; [2]
  pKd: 4.34
MPDZ_5, O75970; [2]
  pKd: below the threshold
MAGI2_3, Q86UL8; [2]
  pKd: 3.83
FRMPD4, Q14CM0; [2]
  pKd: below the threshold
PTPN3, P26045; [2]
  pKd: 4.59
LNX1_3, Q8TBB1; [2]
  pKd: below the threshold
PDZD7_3, Q9H5P4; [2]
  pKd: 4.55
APBA1_2, Q02410; [2]
  pKd: 3.69
PARD3B_1, Q8TEW8; [2]
  pKd: below the threshold
FRMPD2_1, Q68DX3; [2]
  pKd: below the threshold
Inadl_10, Q8NI35; [2]
  pKd: below the threshold
NOS1, P29475; [2]
  pKd: 3.57
Inadl_1, Q8NI35; [2]
  pKd: below the threshold
MAGI3_2, Q5TCQ9; [2]
  pKd: 4.32
Inadl_6, Q8NI35; [2]
  pKd: below the threshold
Inadl_4, Q8NI35; [2]
  pKd: below the threshold
PDLIM1, O00151; [2]
  pKd: below the threshold
LNX2_2, Q8N448; [2]
  pKd: below the threshold

## DPRNTQTSQI [ABRAXAS2, Q15018]
GRIP1_4, Q9Y3R0; [1]
  pKd: below the threshold
SIPA1L2, Q9P2F8; [1]
  pKd: below the threshold
GRIP1_5, Q9Y3R0; [1]
  pKd: 3.66
NHERF4_2, Q86UT5; [1]
  pKd: below the threshold
FRMPD3, Q5JV73; [1]
  pKd: below the threshold
DFNB31_3, Q9P202; [1]
  pKd: 3.67
FRMPD1, Q5SYB0; [1]
  pKd: below the threshold
DLG2_3, Q15700; [1]
  pKd: 3.53
PDZRN4_1, Q6ZMN7; [1]
  pKd: 3.56
SHANK1, Q9Y566; [1]
  pKd: below the threshold
MPDZ_5, O75970; [1]
  pKd: below the threshold
MAGI2_3, Q86UL8; [1]
  pKd: below the threshold
FRMPD4, Q14CM0; [1]
  pKd: below the threshold
PTPN3, P26045; [1]
  pKd: 3.77
LNX1_3, Q8TBB1; [1]
  pKd: below the threshold
PDZD7_3, Q9H5P4; [1]
  pKd: 4.31
APBA1_2, Q02410; [1]
  pKd: 3.71
PARD3B_1, Q8TEW8; [1]
  pKd: 3.69
FRMPD2_1, Q68DX3; [1]
  pKd: below the threshold
Inadl_10, Q8NI35; [1]
  pKd: 3.52
NOS1, P29475; [1]
  pKd: 3.52
Inadl_1, Q8NI35; [1]
  pKd: 3.72
MAGI3_2, Q5TCQ9; [1]
  pKd: below the threshold
Inadl_6, Q8NI35; [1]
  pKd: below the threshold
Inadl_4, Q8NI35; [1]
  pKd: below the threshold
PDLIM1, O00151; [1]
  pKd: below the threshold
LNX2_2, Q8N448; [1]
  pKd: below the threshold
